Measurements from publication PMC3796444 (PLoS ONE, 2013).

B1: alanine:glyoxylate aminotransferase p.A295T on the minor allele, recombinant His-tagged (enzyme, human, UniProt P21549 1-392, looked up)
chain: MASHKLLVTPLKALLKPLSIPNQLLLGPGPSNLPPRIMAAGGLQMIGSMSKDMYQIMDEIKEGIQYVFQTRNPLTLVISGSGHCALEAALVNVLEPGDSFLVGANGIWGQRAVDIGERIGARVHPMTKDPGGHYTLQEVEEGLAQHKPVLLFLTHGESSTGVLQPLDGFGELCHRYKCLLLVDSVASLGGTPLYMDRQGIDILYSGSQKALNAPPGTSLISFSDKAKKKMYSRKTKPFSFYLDIKWLANFWGCDDQPRMYHHTIPVISLYSLRESLALIAEQGLENSWRQHREATAYLHGRLQALGLQLFVKDPALRLPTVTTVAVPAGYDWRDIVSYVMDHFDIEIMGGLGPSTGKVLRIGLLGCNATRENVDRVTEALRAALQHCPKKKL
notes: alanine:glyoxylate aminotransferase (AGT), human, rare variant p.A295T in the minor allele; source: E. coli BL21 (pCOLDII), purified (IMAC, SEC)
B2: alanine:glyoxylate aminotransferase p.P11L, recombinant His-tagged (enzyme, human, UniProt P21549 1-392, looked up)
chain: MASHKLLVTPLKALLKPLSIPNQLLLGPGPSNLPPRIMAAGGLQMIGSMSKDMYQIMDEIKEGIQYVFQTRNPLTLVISGSGHCALEAALVNVLEPGDSFLVGANGIWGQRAVDIGERIGARVHPMTKDPGGHYTLQEVEEGLAQHKPVLLFLTHGESSTGVLQPLDGFGELCHRYKCLLLVDSVASLGGTPLYMDRQGIDILYSGSQKALNAPPGTSLISFSDKAKKKMYSRKTKPFSFYLDIKWLANFWGCDDQPRMYHHTIPVISLYSLRESLALIAEQGLENSWRQHREAAAYLHGRLQALGLQLFVKDPALRLPTVTTVAVPAGYDWRDIVSYVIDHFDIEIMGGLGPSTGKVLRIGLLGCNATRENVDRVTEALRAALQHCPKKKL
notes: alanine:glyoxylate aminotransferase (AGT), human, polymorphic variant p.P11L; source: E. coli BL21 (pCOLDII), purified (IMAC, SEC)
B3: alanine:glyoxylate aminotransferase p.G170R on the minor allele, recombinant His-tagged (enzyme, human, UniProt P21549 1-392, looked up)
chain: MASHKLLVTPLKALLKPLSIPNQLLLGPGPSNLPPRIMAAGGLQMIGSMSKDMYQIMDEIKEGIQYVFQTRNPLTLVISGSGHCALEAALVNVLEPGDSFLVGANGIWGQRAVDIGERIGARVHPMTKDPGGHYTLQEVEEGLAQHKPVLLFLTHGESSTGVLQPLDGFRELCHRYKCLLLVDSVASLGGTPLYMDRQGIDILYSGSQKALNAPPGTSLISFSDKAKKKMYSRKTKPFSFYLDIKWLANFWGCDDQPRMYHHTIPVISLYSLRESLALIAEQGLENSWRQHREAAAYLHGRLQALGLQLFVKDPALRLPTVTTVAVPAGYDWRDIVSYVMDHFDIEIMGGLGPSTGKVLRIGLLGCNATRENVDRVTEALRAALQHCPKKKL
notes: alanine:glyoxylate aminotransferase (AGT), human, PH1 mutation p.G170R in the minor allele (p.P11L, p.G170R and p.I340M in cis); source: E. coli BL21 (pCOLDII), purified (IMAC, SEC)
B4: alanine:glyoxylate aminotransferase p.A368T on the minor allele, recombinant His-tagged (enzyme, human, UniProt P21549 1-392, looked up)
chain: MASHKLLVTPLKALLKPLSIPNQLLLGPGPSNLPPRIMAAGGLQMIGSMSKDMYQIMDEIKEGIQYVFQTRNPLTLVISGSGHCALEAALVNVLEPGDSFLVGANGIWGQRAVDIGERIGARVHPMTKDPGGHYTLQEVEEGLAQHKPVLLFLTHGESSTGVLQPLDGFGELCHRYKCLLLVDSVASLGGTPLYMDRQGIDILYSGSQKALNAPPGTSLISFSDKAKKKMYSRKTKPFSFYLDIKWLANFWGCDDQPRMYHHTIPVISLYSLRESLALIAEQGLENSWRQHREAAAYLHGRLQALGLQLFVKDPALRLPTVTTVAVPAGYDWRDIVSYVMDHFDIEIMGGLGPSTGKVLRIGLLGCNTTRENVDRVTEALRAALQHCPKKKL
notes: alanine:glyoxylate aminotransferase (AGT), human, PH1 mutation p.A368T in the minor allele; source: E. coli BL21 (pCOLDII), purified (IMAC, SEC)
B5: alanine:glyoxylate aminotransferase minor allele (p.P11L/I340M), recombinant His-tagged (enzyme, human, UniProt P21549 1-392, looked up)
chain: MASHKLLVTPLKALLKPLSIPNQLLLGPGPSNLPPRIMAAGGLQMIGSMSKDMYQIMDEIKEGIQYVFQTRNPLTLVISGSGHCALEAALVNVLEPGDSFLVGANGIWGQRAVDIGERIGARVHPMTKDPGGHYTLQEVEEGLAQHKPVLLFLTHGESSTGVLQPLDGFGELCHRYKCLLLVDSVASLGGTPLYMDRQGIDILYSGSQKALNAPPGTSLISFSDKAKKKMYSRKTKPFSFYLDIKWLANFWGCDDQPRMYHHTIPVISLYSLRESLALIAEQGLENSWRQHREAAAYLHGRLQALGLQLFVKDPALRLPTVTTVAVPAGYDWRDIVSYVMDHFDIEIMGGLGPSTGKVLRIGLLGCNATRENVDRVTEALRAALQHCPKKKL
notes: alanine:glyoxylate aminotransferase (AGT), human, minor allele; also called AGT LM; LM; source: E. coli BL21 (pCOLDII), purified (IMAC, SEC)
B6: alanine:glyoxylate aminotransferase p.H83R on the minor allele, recombinant His-tagged (enzyme, human, UniProt P21549 1-392, looked up)
chain: MASHKLLVTPLKALLKPLSIPNQLLLGPGPSNLPPRIMAAGGLQMIGSMSKDMYQIMDEIKEGIQYVFQTRNPLTLVISGSGRCALEAALVNVLEPGDSFLVGANGIWGQRAVDIGERIGARVHPMTKDPGGHYTLQEVEEGLAQHKPVLLFLTHGESSTGVLQPLDGFGELCHRYKCLLLVDSVASLGGTPLYMDRQGIDILYSGSQKALNAPPGTSLISFSDKAKKKMYSRKTKPFSFYLDIKWLANFWGCDDQPRMYHHTIPVISLYSLRESLALIAEQGLENSWRQHREAAAYLHGRLQALGLQLFVKDPALRLPTVTTVAVPAGYDWRDIVSYVMDHFDIEIMGGLGPSTGKVLRIGLLGCNATRENVDRVTEALRAALQHCPKKKL
notes: alanine:glyoxylate aminotransferase (AGT), human, PH1 mutation p.H83R in the minor allele; source: E. coli BL21 (pCOLDII), purified (IMAC, SEC)
B7: alanine:glyoxylate aminotransferase p.F152I on the minor allele, recombinant His-tagged (enzyme, human, UniProt P21549 1-392, looked up)
chain: MASHKLLVTPLKALLKPLSIPNQLLLGPGPSNLPPRIMAAGGLQMIGSMSKDMYQIMDEIKEGIQYVFQTRNPLTLVISGSGHCALEAALVNVLEPGDSFLVGANGIWGQRAVDIGERIGARVHPMTKDPGGHYTLQEVEEGLAQHKPVLLILTHGESSTGVLQPLDGFGELCHRYKCLLLVDSVASLGGTPLYMDRQGIDILYSGSQKALNAPPGTSLISFSDKAKKKMYSRKTKPFSFYLDIKWLANFWGCDDQPRMYHHTIPVISLYSLRESLALIAEQGLENSWRQHREAAAYLHGRLQALGLQLFVKDPALRLPTVTTVAVPAGYDWRDIVSYVMDHFDIEIMGGLGPSTGKVLRIGLLGCNATRENVDRVTEALRAALQHCPKKKL
notes: alanine:glyoxylate aminotransferase (AGT), human, PH1 mutation p.F152I in the minor allele; source: E. coli BL21 (pCOLDII), purified (IMAC, SEC)
B8: alanine:glyoxylate aminotransferase p.R197Q on the minor allele, recombinant His-tagged (enzyme, human, UniProt P21549 1-392, looked up)
chain: MASHKLLVTPLKALLKPLSIPNQLLLGPGPSNLPPRIMAAGGLQMIGSMSKDMYQIMDEIKEGIQYVFQTRNPLTLVISGSGHCALEAALVNVLEPGDSFLVGANGIWGQRAVDIGERIGARVHPMTKDPGGHYTLQEVEEGLAQHKPVLLFLTHGESSTGVLQPLDGFGELCHRYKCLLLVDSVASLGGTPLYMDQQGIDILYSGSQKALNAPPGTSLISFSDKAKKKMYSRKTKPFSFYLDIKWLANFWGCDDQPRMYHHTIPVISLYSLRESLALIAEQGLENSWRQHREAAAYLHGRLQALGLQLFVKDPALRLPTVTTVAVPAGYDWRDIVSYVMDHFDIEIMGGLGPSTGKVLRIGLLGCNATRENVDRVTEALRAALQHCPKKKL
notes: alanine:glyoxylate aminotransferase (AGT), human, rare variant p.R197Q in the minor allele; source: E. coli BL21 (pCOLDII), purified (IMAC, SEC)

Columns and labels:
[1] = biological target: the molecule itself; test: SEC; purified recombinant AGT variants; single peak, elution volume of a ≈90 kDa dimer; data not shown
[2] = substrate: C[C@H](N)C(=O)O; test: LDH-coupled pyruvate assay, global double-displacement fit; assay type: biochemical, Homo sapiens; settings: glyoxylate 0-5 mM, 150 µM PLP, 0.1 M Na-phosphate pH 8, 25°C
Description: (§1) LDH-coupled pyruvate assay, global double-displacement fit on alanine:glyoxylate aminotransferase (AGT), AGT WT (major allele)

[3] = substrate: O=CC(=O)O; test: as above; assay type: biochemical, Homo sapiens; settings: L-alanine 0-100 mM, 150 µM PLP, 0.1 M Na-phosphate pH 8, 25°C
Description: as §1

Protein	stoichiometry N [1]	Km [2] [mM]	Km [3] [mM]
B1	2	–	–
B2	2	–	–
B3	2	–	–
B4	2	–	–
B5	2	19.8 ± 1.5	–
B6	2	42.4 ± 2.4	0.156 ± 0.019
B7	2	–	–
B8	2	–	–
